Test results from PMC3162602, “Laforin, a Dual Specificity Phosphatase Involved in Lafora Disease, Is Present Mainly as Monomeric Form with Full Phosphatase Activity” (PLoS ONE, 2011).

Tests used:
[1] = target: Cm-laforin-HIS6 (Cyanidioschyzon merolae); assay: SEC; SEX4-HIS6 on Superdex-75 and Cm-laforin-HIS6 on Superdex-200 after Ni-NTA; multiple peaks
Hs-laforin-HIS6 (human) = Hs-laforin-HIS6 (human) (UniProt O95278); assay: SEC; Ni-NTA-purified Hs-laforin-HIS6 on HiLoad 16/60 Superdex 75; two peaks, A (dimer) and B (monomer)
[2] = target: the molecule itself; assay: SEC; SEX4-HIS6 on Superdex-75 and Cm-laforin-HIS6 on Superdex-200 after Ni-NTA; multiple peaks

Q: How did the stoichiometry N [1] turn out when Cm-laforin-HIS6 (enzyme) was run?
A: The stoichiometry N was 2.

Q: With “Hs-laforin-HIS6 (from UniProt O95278 1-331) (enzyme)” as the molecule, how does the stoichiometry N (Hs-laforin-HIS6 (human)) read?
A: The stoichiometry N was 2.

B1: At-SEX4-HIS6(Δ81) (enzyme, Arabidopsis thaliana, UniProt Q9FEB5 82-379, looked up)
chain: QAMGAVLTYRHELGMNYNFIRPDLIVGSCLQTPEDVDKLRKIGVKTIFCLQQDPDLEYFGVDISSIQAYAKKYSDIQHIRCEIRDFDAFDLRMRLPAVVGTLYKAVKRNGGVTYVHCTAGMGRAPAVALTYMFWVQGYKLMEAHKLLMSKRSCFPKLDAIRNATIDILTGLKRKTVTLTLKDKGFSRVEISGLDIGWGQRIPLTLDKGTGFWILKRELPEGQFEYKYIIDGEWTHNEAEPFIGPNKDGHTNNYAKVVDDPTSVDGTTRERLSSEDPELLEEERSKLIQFLETCSEAEV
notes: SEX4 (Starch EXcess4), Arabidopsis thaliana glucan phosphatase; construct pET21a At-SEX4-HIS6(Δ81), printed as a 32 kDa protein; Δ81 read as lacking the first 81 residues; also called Starch EXcess4; source: bacteria (E. coli), purified (Ni-NTA, Superdex-75)
Q: B1 was tested. Which “stoichiometry N” value [2] did it give?
A: The value was 2.
